Molecular target: β-PrP^23–231 (full-length recombinant mouse PrP residues 23–231 refolded to the β-sheet conformation) (mouse) (UniProt P04925)
Test: AUC

“β-PrP^23–231 (full-length recombinant mouse PrP residues 23–231 refolded to the β-sheet conformation) (from UniProt P04925 23-231) (natural protein)” showed a percentage occupancy of sample (oligomer) of 61% and a stoichiometry N (monomer subunits) of 12.

Source: publication PMC4162156
